Numbered stars: 1 amine (or outer) side, 2 acyl side, 3 side chain; on linkers, the order of the positions; unused ones are H or OH. * marks the point of attachment. C20 diacid = O=C(O)CCCCCCCCCCCCCCCCCCC(=O)*; γGlu = O=C(O)[C@H](CCC(=O)[*:2])N[*:1]

T1: human amylin 3(a) receptor (human calcitonin receptor co-expressed with RAMP-3) on BHK570/CRE-luc cells (human, UniProt P30988 25-474; O60896 24-148)
T1 sequence (looked up) 1: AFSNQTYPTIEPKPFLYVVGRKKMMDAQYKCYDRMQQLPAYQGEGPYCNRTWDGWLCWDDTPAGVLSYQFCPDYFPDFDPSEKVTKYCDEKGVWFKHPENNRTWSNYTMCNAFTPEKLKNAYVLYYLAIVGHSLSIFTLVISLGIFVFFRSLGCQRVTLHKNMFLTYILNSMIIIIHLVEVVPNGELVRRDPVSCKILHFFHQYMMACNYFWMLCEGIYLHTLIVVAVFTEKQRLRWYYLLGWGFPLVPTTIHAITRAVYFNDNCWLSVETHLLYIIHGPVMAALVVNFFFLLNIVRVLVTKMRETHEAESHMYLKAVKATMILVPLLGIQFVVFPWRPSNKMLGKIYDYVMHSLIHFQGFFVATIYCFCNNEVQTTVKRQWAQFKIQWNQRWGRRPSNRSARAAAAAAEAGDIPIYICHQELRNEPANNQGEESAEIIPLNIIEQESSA
T1 sequence (looked up) 2: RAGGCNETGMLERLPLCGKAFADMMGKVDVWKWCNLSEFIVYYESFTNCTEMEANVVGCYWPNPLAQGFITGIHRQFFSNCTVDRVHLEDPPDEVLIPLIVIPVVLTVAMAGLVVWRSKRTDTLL

T2: human calcitonin receptor on BHK570/CRE-luc cells (human, UniProt P30988 25-474)
T2 sequence (looked up): T1 sequence (looked up) 1

B1: [N-terminal(C20 diacid-gGlu), des1, 4G, 9T, 15Q, 21Q, 23Y, 25P, 30S, 31G, 32T, 33Y]mimylin (peptide)
peptide: {C20 diacid-γGlu}-ASGLSTATLGRLSQELHELQTYPPTETGSGTY-NH2
SMILES: CC(C)C[C@H](NC(=O)CNC(=O)[C@H](CO)NC(=O)[C@H](C)NC(=O)CC[C@H](NC(=O)CCCCCCCCCCCCCCCCCCC(=O)O)C(=O)O)C(=O)N[C@@H](CO)C(=O)N[C@H](C(=O)N[C@@H](C)C(=O)N[C@H](C(=O)N[C@@H](CC(C)C)C(=O)NCC(=O)N[C@@H](CCCNC(=N)N)C(=O)N[C@@H](CC(C)C)C(=O)N[C@@H](CO)C(=O)N[C@@H](CCC(N)=O)C(=O)N[C@@H](CCC(=O)O)C(=O)N[C@@H](CC(C)C)C(=O)N[C@@H](Cc1c[nH]cn1)C(=O)N[C@@H](CCC(=O)O)C(=O)N[C@@H](CC(C)C)C(=O)N[C@@H](CCC(N)=O)C(=O)N[C@H](C(=O)N[C@@H](Cc1ccc(O)cc1)C(=O)N1CCC[C@H]1C(=O)N1CCC[C@H]1C(=O)N[C@H](C(=O)N[C@@H](CCC(=O)O)C(=O)N[C@H](C(=O)NCC(=O)N[C@@H](CO)C(=O)NCC(=O)N[C@H](C(=O)N[C@@H](Cc1ccc(O)cc1)C(N)=O)[C@@H](C)O)[C@@H](C)O)[C@@H](C)O)[C@@H](C)O)[C@@H](C)O)[C@@H](C)O
B2: [N-terminal(C20 diacid-gGlu), 2L, 4G, 8L, 9V, 15Q, 21Q, 23Y, 27G, 30S, 31G, 32T, 33Y]mimylin (peptide)
peptide: {C20 diacid-γGlu}-ELSGLSTLVLGRLSQELHELQTYPRTGTGSGTY-NH2
SMILES: CC(C)C[C@H](NC(=O)CNC(=O)[C@H](CO)NC(=O)[C@H](CC(C)C)NC(=O)[C@H](CCC(=O)O)NC(=O)CC[C@H](NC(=O)CCCCCCCCCCCCCCCCCCC(=O)O)C(=O)O)C(=O)N[C@@H](CO)C(=O)N[C@H](C(=O)N[C@@H](CC(C)C)C(=O)N[C@H](C(=O)N[C@@H](CC(C)C)C(=O)NCC(=O)N[C@@H](CCCNC(=N)N)C(=O)N[C@@H](CC(C)C)C(=O)N[C@@H](CO)C(=O)N[C@@H](CCC(N)=O)C(=O)N[C@@H](CCC(=O)O)C(=O)N[C@@H](CC(C)C)C(=O)N[C@@H](Cc1c[nH]cn1)C(=O)N[C@@H](CCC(=O)O)C(=O)N[C@@H](CC(C)C)C(=O)N[C@@H](CCC(N)=O)C(=O)N[C@H](C(=O)N[C@@H](Cc1ccc(O)cc1)C(=O)N1CCC[C@H]1C(=O)N[C@@H](CCCNC(=N)N)C(=O)N[C@H](C(=O)NCC(=O)N[C@H](C(=O)NCC(=O)N[C@@H](CO)C(=O)NCC(=O)N[C@H](C(=O)N[C@@H](Cc1ccc(O)cc1)C(N)=O)[C@@H](C)O)[C@@H](C)O)[C@@H](C)O)[C@@H](C)O)C(C)C)[C@@H](C)O
B3: [N-terminal(C20 diacid-gGlu), des1, 4G, 9V, 15Q, 21Q, 23aQ, 23bT, 23cY, 30S, 31Q, 32T, 33Y]mimylin (peptide)
peptide: {C20 diacid-γGlu}-ASGLSTAVLGRLSQELHELQTLQTYPRTETGSQTY-NH2
SMILES: CC(C)C[C@H](NC(=O)CNC(=O)[C@H](CO)NC(=O)[C@H](C)NC(=O)CC[C@H](NC(=O)CCCCCCCCCCCCCCCCCCC(=O)O)C(=O)O)C(=O)N[C@@H](CO)C(=O)N[C@H](C(=O)N[C@@H](C)C(=O)N[C@H](C(=O)N[C@@H](CC(C)C)C(=O)NCC(=O)N[C@@H](CCCNC(=N)N)C(=O)N[C@@H](CC(C)C)C(=O)N[C@@H](CO)C(=O)N[C@@H](CCC(N)=O)C(=O)N[C@@H](CCC(=O)O)C(=O)N[C@@H](CC(C)C)C(=O)N[C@@H](Cc1c[nH]cn1)C(=O)N[C@@H](CCC(=O)O)C(=O)N[C@@H](CC(C)C)C(=O)N[C@@H](CCC(N)=O)C(=O)N[C@H](C(=O)N[C@@H](CC(C)C)C(=O)N[C@@H](CCC(N)=O)C(=O)N[C@H](C(=O)N[C@@H](Cc1ccc(O)cc1)C(=O)N1CCC[C@H]1C(=O)N[C@@H](CCCNC(=N)N)C(=O)N[C@H](C(=O)N[C@@H](CCC(=O)O)C(=O)N[C@H](C(=O)NCC(=O)N[C@@H](CO)C(=O)N[C@@H](CCC(N)=O)C(=O)N[C@H](C(=O)N[C@@H](Cc1ccc(O)cc1)C(N)=O)[C@@H](C)O)[C@@H](C)O)[C@@H](C)O)[C@@H](C)O)[C@@H](C)O)C(C)C)[C@@H](C)O
B4: [N-terminal(C20 diacid-gGlu), des1, 4G, 9V, 12K, 15Q, 21Q, 23Y, 25P, 30S, 31G, 32T, 33Y]mimylin (peptide)
peptide: {C20 diacid-γGlu}-ASGLSTAVLGKLSQELHELQTYPPTETGSGTY-NH2
SMILES: CC(C)C[C@H](NC(=O)CNC(=O)[C@H](CO)NC(=O)[C@H](C)NC(=O)CC[C@H](NC(=O)CCCCCCCCCCCCCCCCCCC(=O)O)C(=O)O)C(=O)N[C@@H](CO)C(=O)N[C@H](C(=O)N[C@@H](C)C(=O)N[C@H](C(=O)N[C@@H](CC(C)C)C(=O)NCC(=O)N[C@@H](CCCCN)C(=O)N[C@@H](CC(C)C)C(=O)N[C@@H](CO)C(=O)N[C@@H](CCC(N)=O)C(=O)N[C@@H](CCC(=O)O)C(=O)N[C@@H](CC(C)C)C(=O)N[C@@H](Cc1c[nH]cn1)C(=O)N[C@@H](CCC(=O)O)C(=O)N[C@@H](CC(C)C)C(=O)N[C@@H](CCC(N)=O)C(=O)N[C@H](C(=O)N[C@@H](Cc1ccc(O)cc1)C(=O)N1CCC[C@H]1C(=O)N1CCC[C@H]1C(=O)N[C@H](C(=O)N[C@@H](CCC(=O)O)C(=O)N[C@H](C(=O)NCC(=O)N[C@@H](CO)C(=O)NCC(=O)N[C@H](C(=O)N[C@@H](Cc1ccc(O)cc1)C(N)=O)[C@@H](C)O)[C@@H](C)O)[C@@H](C)O)[C@@H](C)O)C(C)C)[C@@H](C)O
B5: [N-terminal(C20 diacid-gGlu), des1, 2L, 4G, 9V, 15Q, 21Q, 23Y, 30S, 31Q, 32T, 33Y]mimylin (peptide)
peptide: {C20 diacid-γGlu}-LSGLSTAVLGRLSQELHELQTYPRTETGSQTY-NH2
SMILES: CC(C)C[C@H](NC(=O)CC[C@H](NC(=O)CCCCCCCCCCCCCCCCCCC(=O)O)C(=O)O)C(=O)N[C@@H](CO)C(=O)NCC(=O)N[C@@H](CC(C)C)C(=O)N[C@@H](CO)C(=O)N[C@H](C(=O)N[C@@H](C)C(=O)N[C@H](C(=O)N[C@@H](CC(C)C)C(=O)NCC(=O)N[C@@H](CCCNC(=N)N)C(=O)N[C@@H](CC(C)C)C(=O)N[C@@H](CO)C(=O)N[C@@H](CCC(N)=O)C(=O)N[C@@H](CCC(=O)O)C(=O)N[C@@H](CC(C)C)C(=O)N[C@@H](Cc1c[nH]cn1)C(=O)N[C@@H](CCC(=O)O)C(=O)N[C@@H](CC(C)C)C(=O)N[C@@H](CCC(N)=O)C(=O)N[C@H](C(=O)N[C@@H](Cc1ccc(O)cc1)C(=O)N1CCC[C@H]1C(=O)N[C@@H](CCCNC(=N)N)C(=O)N[C@H](C(=O)N[C@@H](CCC(=O)O)C(=O)N[C@H](C(=O)NCC(=O)N[C@@H](CO)C(=O)N[C@@H](CCC(N)=O)C(=O)N[C@H](C(=O)N[C@@H](Cc1ccc(O)cc1)C(N)=O)[C@@H](C)O)[C@@H](C)O)[C@@H](C)O)[C@@H](C)O)C(C)C)[C@@H](C)O

The first experiment deals with T1, human amylin 3(a) receptor (human …). Nature of the experiment: cell-based or functional assay.
In the case of B1, the “hAmylin-R funct. EC50 (pM), tested with HSA” value (“hAmylin-R funct. EC50 (pM)” for short) came out at 173 pM.
With B2, the “hAmylin-R funct. EC50 (pM)” value is 565 pM.
Still for that read-out and setting: the result for B3 reads 185 pM.
Regarding B4, the “hAmylin-R funct. EC50 (pM)” value was determined as 154 pM.
Turning to B5, the “hAmylin-R funct. EC50 (pM)” value was 140 pM.

In the next experiment the target is T2, human calcitonin receptor on …. Briefly: cell-based or functional assay.
For the molecule B1, the “hCTR funct. EC50 (pM), tested with HSA” value is 77 pM.
As for B2, the “hCTR funct. EC50 (pM), tested with HSA” value was found to be 852 pM.
For the molecule B3, the “hCTR funct. EC50 (pM), tested with HSA” value was found to be 99 pM.
Regarding B4, the “hCTR funct. EC50 (pM), tested with HSA” value is 62 pM.
Still for that read-out and setting: the result for B5 reads 73 pM.

Values taken from patent US20160272683A1 (Novo Nordisk, published 2016).
